Data reported in patent US20050282743A1, “Molecular interactions in cells” (Arbor Vita Corporation, priority 2001, published 2005).
Ends that are not written are not given here. Peptide text beside a SMILES is read from it. * marks the point of attachment. Biotin = O=C1N[C@H]2[C@H](CS[C@H]2CCCCC(=O)*)N1

Legend:
Assay in all cases: G' assay (10 uM PL peptide), results of TABLE 7 and TABLE 12
Format in all cases: binding
[1] = target: T1, PDZ protein (GST-PDZ fusion) (Homo sapiens, UniProt Q5T2W1)
T1 construct: made in house; host or cells: E. coli (DH5alpha, BL21 or JM109)
T1 sequence (Q5T2W1 1-519): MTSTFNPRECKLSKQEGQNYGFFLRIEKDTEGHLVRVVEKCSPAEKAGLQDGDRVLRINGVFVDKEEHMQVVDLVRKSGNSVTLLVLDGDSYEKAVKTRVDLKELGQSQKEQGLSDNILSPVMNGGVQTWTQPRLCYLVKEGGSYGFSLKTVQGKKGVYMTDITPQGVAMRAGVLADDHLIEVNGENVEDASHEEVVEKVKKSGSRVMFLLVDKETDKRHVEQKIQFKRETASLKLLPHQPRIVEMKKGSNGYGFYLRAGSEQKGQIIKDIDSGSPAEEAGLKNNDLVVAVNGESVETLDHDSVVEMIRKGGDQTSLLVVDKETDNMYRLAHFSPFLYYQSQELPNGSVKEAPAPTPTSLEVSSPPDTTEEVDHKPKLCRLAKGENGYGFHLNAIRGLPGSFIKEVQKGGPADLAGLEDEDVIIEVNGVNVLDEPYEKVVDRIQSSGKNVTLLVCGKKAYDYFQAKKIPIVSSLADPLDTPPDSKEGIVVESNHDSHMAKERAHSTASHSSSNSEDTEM
Method in brief: (§1)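 Same steps as the G-zero format, apart from a peptide concentration of 10 uM in place of 20 uM in step 2. Amino-terminally biotinylated PL peptides bind GST-PDZ fusions, and retained peptide is quantified by 450 nm absorbance.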

[2] = target: T2, PDZ protein (GST-PDZ fusion) (Homo sapiens, UniProt P29475); details: PDZ NOS1, PDZ Domain 1
T2 construct: made in house; host or cells: E. coli (DH5alpha, BL21 or JM109)
T2 sequence (P29475 whole entry, the tested form may be a part): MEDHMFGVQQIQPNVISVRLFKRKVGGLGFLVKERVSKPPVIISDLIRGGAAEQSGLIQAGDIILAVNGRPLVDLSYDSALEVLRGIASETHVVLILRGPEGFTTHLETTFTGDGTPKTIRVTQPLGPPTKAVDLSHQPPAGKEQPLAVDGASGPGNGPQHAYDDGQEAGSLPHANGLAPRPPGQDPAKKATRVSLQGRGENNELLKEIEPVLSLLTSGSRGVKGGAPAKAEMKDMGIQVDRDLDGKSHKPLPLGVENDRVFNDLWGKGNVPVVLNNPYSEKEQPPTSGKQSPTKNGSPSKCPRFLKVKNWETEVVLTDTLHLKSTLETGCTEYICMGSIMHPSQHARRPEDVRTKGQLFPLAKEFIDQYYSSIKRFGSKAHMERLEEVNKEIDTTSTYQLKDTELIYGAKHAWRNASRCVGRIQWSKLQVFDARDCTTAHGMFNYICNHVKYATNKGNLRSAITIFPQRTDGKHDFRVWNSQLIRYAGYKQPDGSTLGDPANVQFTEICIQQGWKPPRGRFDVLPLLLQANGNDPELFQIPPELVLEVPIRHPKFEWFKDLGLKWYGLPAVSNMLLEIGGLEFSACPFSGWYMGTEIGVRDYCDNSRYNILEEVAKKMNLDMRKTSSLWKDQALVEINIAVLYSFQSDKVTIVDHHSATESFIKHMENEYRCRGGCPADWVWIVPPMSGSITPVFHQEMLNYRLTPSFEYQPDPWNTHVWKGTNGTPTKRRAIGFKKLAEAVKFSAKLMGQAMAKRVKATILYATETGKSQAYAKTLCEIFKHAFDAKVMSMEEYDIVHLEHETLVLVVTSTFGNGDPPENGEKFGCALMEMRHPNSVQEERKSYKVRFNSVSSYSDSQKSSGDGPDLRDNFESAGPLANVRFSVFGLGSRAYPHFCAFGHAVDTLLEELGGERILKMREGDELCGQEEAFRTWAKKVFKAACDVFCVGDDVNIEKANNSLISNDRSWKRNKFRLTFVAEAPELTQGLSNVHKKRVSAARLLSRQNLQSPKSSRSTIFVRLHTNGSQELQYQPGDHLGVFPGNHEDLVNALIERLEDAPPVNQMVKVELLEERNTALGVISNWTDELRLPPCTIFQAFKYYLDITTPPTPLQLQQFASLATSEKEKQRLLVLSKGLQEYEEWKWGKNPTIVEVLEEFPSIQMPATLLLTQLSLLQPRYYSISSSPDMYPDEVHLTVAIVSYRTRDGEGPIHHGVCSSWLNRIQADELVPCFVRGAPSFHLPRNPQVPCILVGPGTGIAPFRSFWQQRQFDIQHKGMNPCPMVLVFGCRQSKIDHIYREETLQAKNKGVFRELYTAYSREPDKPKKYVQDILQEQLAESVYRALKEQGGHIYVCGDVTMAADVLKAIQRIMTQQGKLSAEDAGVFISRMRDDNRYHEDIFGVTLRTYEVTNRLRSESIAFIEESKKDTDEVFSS
Method in brief: as §1

[3] = target: T3, PDZ protein (GST-PDZ fusion) (Homo sapiens, UniProt P50479); details: PDZ LIM RIL, PDZ Domain 1
T3 construct: made in house; host or cells: E. coli (DH5alpha, BL21 or JM109)
T3 sequence (P50479 1-330): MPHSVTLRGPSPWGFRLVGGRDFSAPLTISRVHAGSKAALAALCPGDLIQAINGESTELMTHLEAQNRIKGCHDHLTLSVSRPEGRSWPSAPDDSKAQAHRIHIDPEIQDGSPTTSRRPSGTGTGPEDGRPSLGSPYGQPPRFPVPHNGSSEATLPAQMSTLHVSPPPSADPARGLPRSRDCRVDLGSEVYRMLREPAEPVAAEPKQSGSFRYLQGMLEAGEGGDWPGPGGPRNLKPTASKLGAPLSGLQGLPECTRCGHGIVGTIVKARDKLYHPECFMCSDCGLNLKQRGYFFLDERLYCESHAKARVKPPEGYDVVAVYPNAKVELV
Method in brief: as §1

[4] = target: T4, PDZ protein (GST-PDZ fusion) (Homo sapiens, UniProt Q96JY6); details: PDZ LIM-Mystique, PDZ Domain 1
T4 construct: made in house; host or cells: E. coli (DH5alpha, BL21 or JM109)
T4 sequence (Q96JY6 1-352): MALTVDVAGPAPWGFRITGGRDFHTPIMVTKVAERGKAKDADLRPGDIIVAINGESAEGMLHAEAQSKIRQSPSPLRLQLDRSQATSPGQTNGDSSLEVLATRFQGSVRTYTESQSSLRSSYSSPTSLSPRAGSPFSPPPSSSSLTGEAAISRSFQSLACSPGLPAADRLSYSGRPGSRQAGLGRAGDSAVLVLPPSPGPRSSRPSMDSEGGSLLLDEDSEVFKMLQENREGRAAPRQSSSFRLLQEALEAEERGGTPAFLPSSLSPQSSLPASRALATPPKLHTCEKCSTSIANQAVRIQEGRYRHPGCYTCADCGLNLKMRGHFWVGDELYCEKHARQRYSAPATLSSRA
Method in brief: as §1

[5] = target: T5, PDZ protein (GST-PDZ fusion) (Homo sapiens, UniProt O15085); details: PDZ KIAA0380, PDZ Domain 1
T5 construct: made in house; host or cells: E. coli (DH5alpha, BL21 or JM109)
T5 sequence (O15085 whole entry, the tested form may be a part): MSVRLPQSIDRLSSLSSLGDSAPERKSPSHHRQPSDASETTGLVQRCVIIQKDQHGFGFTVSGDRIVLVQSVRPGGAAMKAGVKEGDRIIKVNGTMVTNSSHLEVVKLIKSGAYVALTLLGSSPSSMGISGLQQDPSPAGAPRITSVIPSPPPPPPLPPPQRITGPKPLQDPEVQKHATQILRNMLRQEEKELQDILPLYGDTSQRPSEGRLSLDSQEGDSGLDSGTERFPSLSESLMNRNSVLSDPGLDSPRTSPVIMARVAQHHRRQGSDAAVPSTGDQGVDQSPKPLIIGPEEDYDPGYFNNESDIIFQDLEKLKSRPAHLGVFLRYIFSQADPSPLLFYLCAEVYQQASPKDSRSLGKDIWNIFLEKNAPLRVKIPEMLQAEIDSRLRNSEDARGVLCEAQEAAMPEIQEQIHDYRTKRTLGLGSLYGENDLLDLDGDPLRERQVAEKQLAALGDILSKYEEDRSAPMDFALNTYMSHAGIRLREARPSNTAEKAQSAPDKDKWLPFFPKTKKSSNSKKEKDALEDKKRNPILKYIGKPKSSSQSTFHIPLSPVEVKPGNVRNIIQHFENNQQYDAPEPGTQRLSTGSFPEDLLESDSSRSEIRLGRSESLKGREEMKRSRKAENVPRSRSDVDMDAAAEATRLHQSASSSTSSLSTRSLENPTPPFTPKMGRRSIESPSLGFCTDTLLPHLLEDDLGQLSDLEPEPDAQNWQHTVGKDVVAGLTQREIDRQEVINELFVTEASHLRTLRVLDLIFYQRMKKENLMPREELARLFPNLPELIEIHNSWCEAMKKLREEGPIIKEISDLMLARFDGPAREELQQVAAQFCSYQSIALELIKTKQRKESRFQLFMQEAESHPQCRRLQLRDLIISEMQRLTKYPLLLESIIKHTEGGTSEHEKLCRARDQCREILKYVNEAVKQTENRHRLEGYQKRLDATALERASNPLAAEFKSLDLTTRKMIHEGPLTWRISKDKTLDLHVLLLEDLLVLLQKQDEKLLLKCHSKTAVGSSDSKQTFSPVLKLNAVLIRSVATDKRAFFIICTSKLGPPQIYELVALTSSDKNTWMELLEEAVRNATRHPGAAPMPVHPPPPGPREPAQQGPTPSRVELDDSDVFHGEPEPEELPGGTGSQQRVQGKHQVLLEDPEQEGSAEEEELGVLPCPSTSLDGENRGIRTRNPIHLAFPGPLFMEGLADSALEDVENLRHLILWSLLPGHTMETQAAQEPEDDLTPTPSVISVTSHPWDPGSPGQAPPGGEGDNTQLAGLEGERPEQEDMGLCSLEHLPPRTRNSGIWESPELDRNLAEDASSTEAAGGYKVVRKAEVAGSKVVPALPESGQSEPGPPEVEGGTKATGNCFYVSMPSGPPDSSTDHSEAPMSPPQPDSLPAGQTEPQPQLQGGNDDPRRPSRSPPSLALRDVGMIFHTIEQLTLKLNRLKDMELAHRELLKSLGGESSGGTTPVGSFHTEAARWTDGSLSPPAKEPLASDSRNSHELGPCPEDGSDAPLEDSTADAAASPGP
Method in brief: as §1

| Compound | Classification ([1]; PDZ PDZK1, PDZ Domain 2, 3, 4) | Classification [5] | further results |
| --- | --- | --- | --- |
| CC[C@H](C)[C@H](NC(=O)[C@H](CC(=O)O)NC(=O)[C@H](CCC(=O)O)NC(=O)[C@H](CCCNC(=N)N)NC(=O)[C@@H](NC(=O)CCCC[C@@H]1SC[C@@H]2NC(=O)N[C@@H]21)[C@@H](C)O)C(=O)N[C@@H](Cc1ccc(O)cc1)C(=O)N[C@H](C(=O)N[C@@H](CC(N)=O)C(=O)N[C@@H](Cc1ccc(O)cc1)C(=O)N1CCC[C@H]1C(=O)N[C@H](C(=O)N[C@@H](Cc1ccccc1)C(=O)N[C@@H](CO)C(=O)N[C@@H](CCCNC(=N)N)C(=O)N[C@@H](CCCNC(=N)N)C(=O)N1CCC[C@H]1C(=O)N[C@@H](CCCCN)C(=O)N[C@H](C(=O)N[C@@H](CCCNC(=N)N)C(=O)N[C@H](C(=O)O)C(C)C)[C@@H](C)O)[C@@H](C)O)C(C)C [DNAM-1] (Biotin-TREDIYVNYPTFSRRPKTRV-OH; C-terminus assumed) |  |  | Classification [2]: 1 (A450 nm 0-1) |
| KTMPAAMFRLLTGQETPLYI (Biotin-KTMPAAMFRLLTGQETPLYI) [MINT-2] |  |  | Classification ([1]; PDZ PDZK-1, PDZ Domain 4): 1 (A450 nm 0-1) |
| VHDAESSDEDGYDWGPATDL (Biotin-VHDAESSDEDGYDWGPATDL) [zona occludens 3 (ZO-3)] |  |  | Classification [3]: 2 (A450 nm 1-2); Classification [4]: 2 (A450 nm 1-2) |
| CC(C)C[C@H](NC(=O)CNC(=O)[C@@H](NC(=O)[C@H](CO)NC(=O)[C@H](CC(N)=O)NC(=O)[C@H](Cc1ccccc1)NC(=O)CNC(=O)[C@H](C)NC(=O)[C@H](C)NC(=O)[C@H](Cc1ccccc1)NC(=O)[C@@H](NC(=O)CCCC[C@@H]1SC[C@@H]2NC(=O)N[C@@H]21)[C@@H](C)O)[C@@H](C)O)C(=O)N1CCC[C@H]1C(=O)N[C@@H](Cc1c[nH]cn1)C(=O)N[C@@H](CO)C(=O)N[C@H](C(=O)N[C@H](C(=O)N[C@@H](CCCNC(=N)N)C(=O)N[C@H](C(=O)O)C(C)C)[C@@H](C)O)[C@@H](C)O [Neuroligin] (Biotin-TFAAGFNSTGLPHSTTRV-OH; C-terminus assumed) |  |  | Classification [2]: 1 (A450 nm 0-1) |
| CC(C)C[C@H](NC(=O)[C@H](CCCNC(=N)N)NC(=O)CNC(=O)CNC(=O)[C@H](CCCNC(=N)N)NC(=O)[C@H](C)NC(=O)[C@@H]1CCCN1C(=O)[C@H](CCCNC(=N)N)NC(=O)CNC(=O)CNC(=O)[C@@H](NC(=O)[C@H](C)NC(=O)CCCC[C@@H]1SC[C@@H]2NC(=O)N[C@@H]21)C(C)C)C(=O)N[C@@H](CCC(N)=O)C(=O)NCC(=O)N[C@@H](CCCNC(=N)N)C(=O)N[C@@H](CCCNC(=N)N)C(=O)N[C@@H](CCC(N)=O)C(=O)N[C@H](C(=O)N[C@@H](CCC(N)=O)C(=O)N[C@H](C(=O)O)C(C)C)[C@@H](C)O [HPV E6 58 (modified)] (Biotin-AVGGRPARGGRLQGRRQTQV-OH; C-terminus assumed) | 1 (A450 nm 0-1) | 1 (A450 nm 0-1) |  |
| QATSRNGHSARQHVVADTEL (Biotin-QATSRNGHSARQHVVADTEL) [CD34] |  |  | Classification [3]: 1 (A450 nm 0-1) |
| A2AA_HUMAN (modified) (Biotin-HDFRRAFKKILARGDRKRIV; not fully specified) |  |  | Classification [4]: 1 (A450 nm 0-1) |
| CC(C)C[C@H](NC(=O)[C@H](C)NC(=O)[C@@H](NC(=O)[C@H](CCC(=O)O)NC(=O)[C@H](CCCNC(=N)N)NC(=O)[C@H](CCCNC(=N)N)NC(=O)CNC(=O)[C@H](CCC(N)=O)NC(=O)[C@H](CC(C)C)NC(=O)[C@H](CCCNC(=N)N)NC(=O)CNC(=O)CNC(=O)[C@H](CCCNC(=N)N)NC(=O)[C@H](C)NC(=O)[C@H](CO)NC(=O)[C@H](CCCNC(=N)N)NC(=O)CNC(=O)CNC(=O)[C@H](C)NC(=O)[C@H](C)NC(=O)CCCC[C@@H]1SC[C@@H]2NC(=O)N[C@@H]21)[C@@H](C)O)C(=O)O [HPV E6 33 (modified)] (Biotin-AAGGRSARGGRLQGRRETAL-OH; C-terminus assumed) | 1 (A450 nm 0-1) | 1 (A450 nm 0-1) |  |
| CC[C@H](C)[C@H](NC(=O)[C@H](C)NC(=O)[C@H](CC(C)C)NC(=O)[C@H](Cc1c[nH]c2ccccc12)NC(=O)[C@H](Cc1c[nH]cn1)NC(=O)[C@H](CCC(N)=O)NC(=O)[C@H](CC(C)C)NC(=O)[C@H](CCC(N)=O)NC(=O)[C@H](Cc1ccccc1)NC(=O)[C@H](CCC(N)=O)NC(=O)[C@H](CCCNC(=N)N)NC(=O)[C@@H](NC(=O)[C@H](CC(=O)O)NC(=O)[C@H](CCCNC(=N)N)NC(=O)[C@H](CCC(N)=O)NC(=O)[C@H](C)NC(=O)[C@@H](NC(=O)[C@H](CC(C)C)NC(=O)[C@H](Cc1c[nH]cn1)NC(=O)[C@H](Cc1c[nH]cn1)NC(=O)CCCC[C@@H]1SC[C@@H]2NC(=O)N[C@@H]21)C(C)C)[C@@H](C)CC)C(=O)O [noradrenaline transporter] (Biotin-HHLVAQRDIRQFQLQHWLAI-OH; C-terminus assumed) |  | 1 (A450 nm 0-1) |  |
| CC[C@H](C)[C@H](NC(=O)[C@H](Cc1ccc(O)cc1)NC(=O)[C@H](CC(C)C)NC(=O)[C@H](CCC(N)=O)NC(=O)[C@H](Cc1c[nH]cn1)NC(=O)[C@H](CO)NC(=O)[C@H](C)NC(=O)[C@H](CC(C)C)NC(=O)[C@@H](NC(=O)[C@H](CC(=O)O)NC(=O)[C@H](CCSC)NC(=O)[C@H](Cc1ccccc1)NC(=O)[C@@H]1CCCN1C(=O)[C@H](CCCNC(=N)N)NC(=O)[C@@H](NC(=O)[C@H](CC(C)C)NC(=O)[C@H](CC(N)=O)NC(=O)[C@H](CC(=O)O)NC(=O)[C@@H](NC(=O)[C@H](CO)NC(=O)CCCC[C@@H]1SC[C@@H]2NC(=O)N[C@@H]21)[C@@H](C)O)C(C)C)[C@@H](C)O)C(=O)O [presenilin-2] (Biotin-STDNLVRPFMDTLASHQLYI-OH; C-terminus assumed) |  |  | Classification [2]: 1 (A450 nm 0-1) |
| RNIEEVYVGGKQVVPFSSSV (Biotin-RNIEEVYVGGKQVVPFSSSV) [Nedasin (s-form)] |  | 1 (A450 nm 0-1) |  |
| ARHRVTSYTSSSVNVSSNL (Biotin-ARHRVTSYTSSSVNVSSNL) [IL-8RB] | 1 (A450 nm 0-1) | 1 (A450 nm 0-1) |  |
| LASKSAEEGKQIPDSLSTDL (Biotin-LASKSAEEGKQIPDSLSTDL) [Dock2] |  |  | Classification [3]: 1 (A450 nm 0-1); Classification [4]: 1 (A450 nm 0-1) |

More lines, main results first:

| Classification ([1]; PDZ PDZK1, PDZ Domain 2, 3, 4) | Compound | Classification [5] | further results |
| --- | --- | --- | --- |
| 2 (A450 nm 1-2) | CC[C@H](C)[C@H](NC(=O)CNC(=O)[C@H](CO)NC(=O)[C@H](Cc1ccccc1)NC(=O)[C@@H](NC(=O)[C@H](CS)NC(=O)CNC(=O)CNC(=O)[C@H](C)NC(=O)[C@@H]1CCCN1C(=O)[C@@H](NC(=O)[C@@H]1CCCN1C(=O)CCCC[C@@H]1SC[C@@H]2NC(=O)N[C@@H]21)[C@@H](C)CC)[C@@H](C)O)C(=O)N[C@@H](Cc1ccccc1)C(=O)N1CCC[C@H]1C(=O)N[C@H](C(=O)N[C@@H](CC(C)C)C(=O)N[C@H](C(=O)N[C@@H](CO)C(=O)N1CCC[C@H]1C(=O)N[C@@H](CC(C)C)C(=O)O)[C@@H](C)O)[C@@H](C)O [KIA 1481] (Biotin-PIPAGGCTFSGIFPTLTSPL-OH; C-terminus assumed) |  |  |
| 1 (A450 nm 0-1) | PPATPSPRLALPAHHNATRL (Biotin-PPATPSPRLALPAHHNATRL) [Na+/Pi cotransporter 2] |  |  |
| 1 (A450 nm 0-1) | CC[C@H](C)[C@H](NC(=O)[C@H](CO)NC(=O)[C@H](CCC(=O)O)NC(=O)[C@H](Cc1ccc(O)cc1)NC(=O)[C@H](CC(=O)O)NC(=O)[C@H](CC(N)=O)NC(=O)[C@H](CCC(=O)O)NC(=O)[C@H](CCCCN)NC(=O)CCCC[C@@H]1SC[C@@H]2NC(=O)N[C@@H]21)C(=O)N[C@@H](CO)C(=O)N[C@@H](CC(=O)O)C(=O)N[C@@H](CC(C)C)C(=O)N[C@@H](CCC(N)=O)C(=O)N[C@@H](CCC(N)=O)C(=O)NCC(=O)N[C@@H](CCCNC(=N)N)C(=O)N[C@@H](CC(=O)O)C(=O)N[C@H](C(=O)N[C@H](C(=O)N[C@@H](CCCNC(=N)N)C(=O)N[C@@H](CC(C)C)C(=O)O)[C@@H](C)O)[C@@H](C)CC [PAG] (Biotin-KENDYESISDLQQGRDITRL-OH; C-terminus assumed) |  |  |
